Measured values from US20050009182.

Molecular target: T1, phiC31 integrase (Streptomyces phage phiC31) (UniProt Q9T221)
T1 sequence: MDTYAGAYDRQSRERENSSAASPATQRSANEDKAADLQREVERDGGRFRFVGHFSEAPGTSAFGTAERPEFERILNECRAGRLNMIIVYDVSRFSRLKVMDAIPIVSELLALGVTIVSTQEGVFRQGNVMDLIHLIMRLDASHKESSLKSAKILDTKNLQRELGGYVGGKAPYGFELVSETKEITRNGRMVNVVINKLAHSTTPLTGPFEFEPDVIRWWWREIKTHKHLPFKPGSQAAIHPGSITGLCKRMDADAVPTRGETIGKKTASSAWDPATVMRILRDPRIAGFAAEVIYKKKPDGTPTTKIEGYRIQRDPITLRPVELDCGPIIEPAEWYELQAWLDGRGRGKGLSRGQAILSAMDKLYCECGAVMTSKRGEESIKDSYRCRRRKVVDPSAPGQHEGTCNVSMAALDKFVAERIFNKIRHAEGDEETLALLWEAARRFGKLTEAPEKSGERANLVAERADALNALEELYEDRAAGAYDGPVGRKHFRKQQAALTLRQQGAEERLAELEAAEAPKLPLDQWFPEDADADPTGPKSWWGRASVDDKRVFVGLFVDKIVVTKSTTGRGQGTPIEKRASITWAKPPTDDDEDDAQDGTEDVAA
Assay: cell_activity

Substance: phiC31 attP 84 bp (ApaI-SacI fragment of pHS282)
- activity (Ura+ transformants per 10^7 cells) (S. pombe FY527attPx2, linear attB-ura4-attB plus pLT43, 19 without integrase): 1570

Substance: phiC31 attB (500 bp BamHI-XbaI fragment of pHS21)
- activity (Ura+ transformants per 10^7 cells) (S. pombe FY527attPx2, circular pLT50 plus pLT43, 63 without integrase): 2560
